Where two headings read alike, the source gives them in different places.
Experiments:
Assay in all cases: SEC-MALS
SEC-MALS = molecular target: the molecule itself
[1] = molecular target: T1, full-length NEIL1 DNA glycosylase, His-tagged (human, UniProt Q96FI4 1-390)
[2] = molecular target: T1, full-length NEIL1 DNA glycosylase, …; remark: listed apart in the source

T1 sequence (Q96FI4 whole entry): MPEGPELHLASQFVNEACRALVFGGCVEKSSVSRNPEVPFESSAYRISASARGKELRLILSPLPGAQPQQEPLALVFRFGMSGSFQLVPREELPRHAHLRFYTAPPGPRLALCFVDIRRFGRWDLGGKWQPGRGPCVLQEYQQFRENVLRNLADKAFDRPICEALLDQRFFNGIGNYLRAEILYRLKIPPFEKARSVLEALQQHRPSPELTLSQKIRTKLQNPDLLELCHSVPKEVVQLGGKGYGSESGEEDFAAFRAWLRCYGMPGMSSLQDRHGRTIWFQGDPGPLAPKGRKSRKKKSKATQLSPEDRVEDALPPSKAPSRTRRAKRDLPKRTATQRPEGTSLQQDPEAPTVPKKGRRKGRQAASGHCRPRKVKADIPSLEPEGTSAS

B1: human mitochondrial single-stranded DNA binding protein, purified recombinant (natural protein, UniProt Q04837 17-148, looked up)
chain: ESETTTSLVLERSLNRVHLLGRVGQDPVLRQVEGKNPVTIFSLATNEMWRSGDSEVYQLGDVSQKTTWHRISVFRPGLRDVAYQYVKKGSRIYLEGKIDYGEYMDKNNVRRQATTIIADNIIFLSDQTKEKE
- stoichiometry N (SEC-MALS): 4
- stoichiometry N [1]: 1 mtSSB tetramer per NEIL1 (with one DNA)
- stoichiometry N [2]: 1 mtSSB monomer per NEIL1

Reference: article PMC5911420 (DNA repair, 2018)
